# Data published in article PMC6414199, “Bim escapes displacement by BH3-mimetic anti-cancer drugs by double-bolt locking both Bcl-XL and Bcl-2” (eLife, 2019).
# Columns and labels:
# [1] = target: Bcl-XL single-cysteine mutant 152C, Alexa647-labelled (human) (UniProt Q07817); assay: FRET or BRET; purified Alexa568-labelled BH3 protein (10 nM) and Alexa647-labelled Bcl-XL (40 nM) with liposomes, ABT-263 titrated in; 37 C, 1 h; relative displacements, not absolute affinity
# [2] = target: mCerulean3-Bcl-2 (human) (UniProt P10415); assay: FRET or BRET; FLIM-FRET in live MCF-7 cells: mCer3-Bcl-XL or mCer3-Bcl-2 stably expressed (donor), Venus-BH3 protein transiently expressed (acceptor); binding curves of FLIM-FRET efficiency against the Venus:mCer3 intensity ratio, 25 C; untreated, DMSO, 20 uM ABT-263 (18-24 h) or 1.25-20 uM A-1155463, A-1331852, ABT-263; R values interpolated at ratio 0.5 (Bcl-XL) or 0.25 (Bcl-2), ^VBad4E signal subtracted
# Chain of mCerulean3-Bcl-2 (human) (P10415 whole entry): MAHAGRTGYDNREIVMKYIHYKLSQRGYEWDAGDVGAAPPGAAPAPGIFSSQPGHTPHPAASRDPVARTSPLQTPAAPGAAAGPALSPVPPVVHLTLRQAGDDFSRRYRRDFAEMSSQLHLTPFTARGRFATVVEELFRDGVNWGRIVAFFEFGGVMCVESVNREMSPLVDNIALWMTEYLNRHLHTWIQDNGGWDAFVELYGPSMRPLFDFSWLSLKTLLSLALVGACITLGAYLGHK
# [3] = target: mCerulean3-Bcl-XL (human) (UniProt Q07817); assay: as above
# Chain of mCerulean3-Bcl-XL (human) (Q07817 whole entry): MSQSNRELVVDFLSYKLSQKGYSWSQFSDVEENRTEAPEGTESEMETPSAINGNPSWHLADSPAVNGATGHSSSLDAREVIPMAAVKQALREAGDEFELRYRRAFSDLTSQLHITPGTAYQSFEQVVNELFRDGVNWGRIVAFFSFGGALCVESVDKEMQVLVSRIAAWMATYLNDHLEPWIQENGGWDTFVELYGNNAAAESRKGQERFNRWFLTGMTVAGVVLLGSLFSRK
# Chain of Venus-BimEL-dCTS (domain or fragment) (O54918 whole entry, the tested form may be a part): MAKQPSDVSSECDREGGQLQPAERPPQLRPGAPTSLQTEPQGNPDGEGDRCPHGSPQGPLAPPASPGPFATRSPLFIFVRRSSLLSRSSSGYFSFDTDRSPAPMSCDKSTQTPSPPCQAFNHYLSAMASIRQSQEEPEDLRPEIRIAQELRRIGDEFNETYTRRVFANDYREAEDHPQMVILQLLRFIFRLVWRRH
# Chain of Venus-BimEL-dN (domain or fragment) (O54918 whole entry, the tested form may be a part): as above
# Chain of Venus-BimEL BH3-2A (O54918 whole entry): as the sequence (O54918 whole entry, the tested form may be a part) above
# Chain of Bcl-XL single-cysteine mutant 152C, Alexa647-labelled (human) (Q07817 other isoform, or with tags, fused parts or gaps mutant): as the sequence (Q07817 whole entry) above, with V152C counted along it
Substance,"R (ABT-263), % of FRET signal left with 20 uM ABT-263 [2]","R (ABT-263), % of FRET signal left with 20 uM ABT-263 [3]","R (BH3-2A), % of FRET signal of the same construct without BH3-2A [2]","R (BH3-2A), % of FRET signal of the same construct without BH3-2A [3]",other results
"Bid single-cysteine mutant 126C (tBid, added as cBid), Alexa568-labelled (domain or fragment)",,,,,IC50 of ABT-263 for displacing the pair [1]: 0.4 µM
Venus-Bad-Bim BH3-2A,,,54.9%,70.2%,
Venus-Bad-Bim-I146Y,53.2%,83.2%,,,
Venus-Bad-Bim-I146Y-Q148R BH3-2A,,,37.7%,50.5%,
Venus-Bad-Bim-I153M,68.5%,92.8%,,,
Venus-Bad-Bim-Q148R,53.5%,89.8%,,,
Venus-BimEL BH3-2A (from UniProt O54918-1 1-196) (natural protein),,,66.8%,81.4%,
Venus-BimEL-Bad BH3-2A,,,,26.1%,
Venus-BimEL-I146Y BH3-2A (from UniProt O54918-1 1-196) (natural protein),,,54.2%,71%,
Venus-BimEL-I146Y-dCTS (domain or fragment),52.9%,38.5%,,,
Venus-BimEL-I188E BH3-2A (from UniProt O54918-1 1-196) (natural protein),,,47.5%,67.2%,
Venus-BimEL-L185A BH3-2A (from UniProt O54918-1 1-196) (natural protein),,,,159%,
Venus-BimEL-L185F BH3-2A (from UniProt O54918-1 1-196) (natural protein),,,,100%,
Venus-BimEL-L185H BH3-2A (from UniProt O54918-1 1-196) (natural protein),,,,49.1%,
Venus-BimEL-L185M BH3-2A (from UniProt O54918-1 1-196) (natural protein),,,,90%,
Venus-BimEL-V192E BH3-2A (from UniProt O54918-1 1-196) (natural protein),,,54.5%,52.6%,
Venus-BimEL-dCTS (domain or fragment),60%,69%,,,
Venus-BimEL-dCTS BH3-2A (domain or fragment),,,13.6%,15.1%,
Venus-BimEL-dN (domain or fragment),90.5%,90.8%,,,

# The next lines start with results.
"R (ABT-263), % of FRET signal left with 20 uM ABT-263 [2]","R (ABT-263), % of FRET signal left with 20 uM ABT-263 [3]","R (BH3-2A), % of FRET signal of the same construct without BH3-2A [2]","R (BH3-2A), % of FRET signal of the same construct without BH3-2A [3]",Substance,other results
65.5%,98%,,,Venus-Bad with the BH3 region of Bim,
,,,46.6%,Venus-Bad-Bim-I146Y BH3-2A,
69.1%,89%,,,Venus-Bad-Bim-I146Y-I153M,
,,42.6%,56.8%,Venus-Bad-Bim-I146Y-I153M BH3-2A,
61.8%,90.2%,,,Venus-Bad-Bim-I146Y-Q148R,
,,102%,96.5%,Venus-Bad-Bim-I153M BH3-2A,
,,56.9%,74.5%,Venus-Bad-Bim-Q148R BH3-2A,
65.8%,60.5%,,,Venus-BimEL with the BH3 region of Bad,
12.5%,40.2%,,,Venus-BimEL-Bad-dCTS,
,,47.2%,49.2%,Venus-BimEL-I181E BH3-2A (from UniProt O54918-1 1-196) (natural protein),
,,,86.8%,Venus-BimEL-L185G BH3-2A (from UniProt O54918-1 1-196) (natural protein),
,,,59%,Venus-BimEL-L185P BH3-2A (from UniProt O54918-1 1-196) (natural protein),
,,,48.1%,Venus-BimEL-L185R BH3-2A (from UniProt O54918-1 1-196) (natural protein),
,,,73.5%,Venus-BimEL-L185S BH3-2A (from UniProt O54918-1 1-196) (natural protein),
